Measured values: patent publication US20220048967A1 (published 2022)
Numbered stars: 1 amine (or outer) side, 2 acyl side, 3 side chain; on linkers, the order of the positions; unused ones are H or OH. Square brackets hold non-standard residues; d marks the D form. Side chains are listed from the residue outwards. Ends that are not written are not given here. * marks the point of attachment. C20 diacid = O=C(O)CCCCCCCCCCCCCCCCCCC(=O)*; γGlu = O=C(O)[C@H](CCC(=O)[*:2])N[*:1]; AEEA = NCCOCCOCC(=O)O; Aib = CC(C)(N)C(=O)O

B1: Example 29 (peptide)
peptide: Y[Aib]EGTFTSDYSILLDK([AEEA-AEEA-γGlu-C20 diacid])IAQ[Aib]AFIEYLIEGGPSSGAPPPS-NH2
modifications: N-terminus assumed
SMILES: CC[C@H](C)[C@H](NC(=O)[C@H](CCCCNC(=O)COCCOCCNC(=O)COCCOCCNC(=O)CC[C@H](NC(=O)CCCCCCCCCCCCCCCCCCC(=O)O)C(=O)O)NC(=O)[C@H](CC(=O)O)NC(=O)[C@H](CC(C)C)NC(=O)[C@H](CC(C)C)NC(=O)[C@@H](NC(=O)[C@H](CO)NC(=O)[C@H](Cc1ccc(O)cc1)NC(=O)[C@H](CC(=O)O)NC(=O)[C@H](CO)NC(=O)[C@@H](NC(=O)[C@H](Cc1ccccc1)NC(=O)[C@@H](NC(=O)CNC(=O)[C@H](CCC(=O)O)NC(=O)C(C)(C)NC(=O)[C@@H](N)Cc1ccc(O)cc1)[C@@H](C)O)[C@@H](C)O)[C@@H](C)CC)C(=O)N[C@@H](C)C(=O)N[C@@H](CCC(N)=O)C(=O)NC(C)(C)C(=O)N[C@@H](C)C(=O)N[C@@H](Cc1ccccc1)C(=O)N[C@H](C(=O)N[C@@H](CCC(=O)O)C(=O)N[C@@H](Cc1ccc(O)cc1)C(=O)N[C@@H](CC(C)C)C(=O)N[C@H](C(=O)N[C@@H](CCC(=O)O)C(=O)NCC(=O)NCC(=O)N1CCC[C@H]1C(=O)N[C@@H](CO)C(=O)N[C@@H](CO)C(=O)NCC(=O)N[C@@H](C)C(=O)N1CCC[C@H]1C(=O)N1CCC[C@H]1C(=O)N1CCC[C@H]1C(=O)N[C@@H](CO)C(N)=O)[C@@H](C)CC)[C@@H](C)CC
B2: Example 32 (peptide)
peptide: Y[Aib]EGTFTSDYSILLDKIAQ[Aib]K([AEEA-AEEA-γGlu-C20 diacid])FIEYLIEGGPSSGAPPPS-NH2
modifications: N-terminus assumed
SMILES: CC[C@H](C)[C@H](NC(=O)[C@H](CCCCN)NC(=O)[C@H](CC(=O)O)NC(=O)[C@H](CC(C)C)NC(=O)[C@H](CC(C)C)NC(=O)[C@@H](NC(=O)[C@H](CO)NC(=O)[C@H](Cc1ccc(O)cc1)NC(=O)[C@H](CC(=O)O)NC(=O)[C@H](CO)NC(=O)[C@@H](NC(=O)[C@H](Cc1ccccc1)NC(=O)[C@@H](NC(=O)CNC(=O)[C@H](CCC(=O)O)NC(=O)C(C)(C)NC(=O)[C@@H](N)Cc1ccc(O)cc1)[C@@H](C)O)[C@@H](C)O)[C@@H](C)CC)C(=O)N[C@@H](C)C(=O)N[C@@H](CCC(N)=O)C(=O)NC(C)(C)C(=O)N[C@@H](CCCCNC(=O)COCCOCCNC(=O)COCCOCCNC(=O)CC[C@H](NC(=O)CCCCCCCCCCCCCCCCCCC(=O)O)C(=O)O)C(=O)N[C@@H](Cc1ccccc1)C(=O)N[C@H](C(=O)N[C@@H](CCC(=O)O)C(=O)N[C@@H](Cc1ccc(O)cc1)C(=O)N[C@@H](CC(C)C)C(=O)N[C@H](C(=O)N[C@@H](CCC(=O)O)C(=O)NCC(=O)NCC(=O)N1CCC[C@H]1C(=O)N[C@@H](CO)C(=O)N[C@@H](CO)C(=O)NCC(=O)N[C@@H](C)C(=O)N1CCC[C@H]1C(=O)N1CCC[C@H]1C(=O)N1CCC[C@H]1C(=O)N[C@@H](CO)C(N)=O)[C@@H](C)CC)[C@@H](C)CC
B3: Example 31 (peptide)
peptide: Y[Aib]EGTFTSDYSILLDKIAK([AEEA-AEEA-γGlu-C20 diacid])[Aib]AFIEYLIEGGPSSGAPPPS-NH2
modifications: N-terminus assumed
SMILES: CC[C@H](C)[C@H](NC(=O)[C@H](CCCCN)NC(=O)[C@H](CC(=O)O)NC(=O)[C@H](CC(C)C)NC(=O)[C@H](CC(C)C)NC(=O)[C@@H](NC(=O)[C@H](CO)NC(=O)[C@H](Cc1ccc(O)cc1)NC(=O)[C@H](CC(=O)O)NC(=O)[C@H](CO)NC(=O)[C@@H](NC(=O)[C@H](Cc1ccccc1)NC(=O)[C@@H](NC(=O)CNC(=O)[C@H](CCC(=O)O)NC(=O)C(C)(C)NC(=O)[C@@H](N)Cc1ccc(O)cc1)[C@@H](C)O)[C@@H](C)O)[C@@H](C)CC)C(=O)N[C@@H](C)C(=O)N[C@@H](CCCCNC(=O)COCCOCCNC(=O)COCCOCCNC(=O)CC[C@H](NC(=O)CCCCCCCCCCCCCCCCCCC(=O)O)C(=O)O)C(=O)NC(C)(C)C(=O)N[C@@H](C)C(=O)N[C@@H](Cc1ccccc1)C(=O)N[C@H](C(=O)N[C@@H](CCC(=O)O)C(=O)N[C@@H](Cc1ccc(O)cc1)C(=O)N[C@@H](CC(C)C)C(=O)N[C@H](C(=O)N[C@@H](CCC(=O)O)C(=O)NCC(=O)NCC(=O)N1CCC[C@H]1C(=O)N[C@@H](CO)C(=O)N[C@@H](CO)C(=O)NCC(=O)N[C@@H](C)C(=O)N1CCC[C@H]1C(=O)N1CCC[C@H]1C(=O)N1CCC[C@H]1C(=O)N[C@@H](CO)C(N)=O)[C@@H](C)CC)[C@@H](C)CC
B4: Example 30 (peptide)
peptide: Y[Aib]EGTFTSDYSILLDKIK([AEEA-AEEA-γGlu-C20 diacid])Q[Aib]AFIEYLIEGGPSSGAPPPS-NH2
modifications: N-terminus assumed
SMILES: CC[C@H](C)[C@H](NC(=O)[C@H](CC(C)C)NC(=O)[C@H](Cc1ccc(O)cc1)NC(=O)[C@H](CCC(=O)O)NC(=O)[C@@H](NC(=O)[C@H](Cc1ccccc1)NC(=O)[C@H](C)NC(=O)C(C)(C)NC(=O)[C@H](CCC(N)=O)NC(=O)[C@H](CCCCNC(=O)COCCOCCNC(=O)COCCOCCNC(=O)CC[C@H](NC(=O)CCCCCCCCCCCCCCCCCCC(=O)O)C(=O)O)NC(=O)[C@@H](NC(=O)[C@H](CCCCN)NC(=O)[C@H](CC(=O)O)NC(=O)[C@H](CC(C)C)NC(=O)[C@H](CC(C)C)NC(=O)[C@@H](NC(=O)[C@H](CO)NC(=O)[C@H](Cc1ccc(O)cc1)NC(=O)[C@H](CC(=O)O)NC(=O)[C@H](CO)NC(=O)[C@@H](NC(=O)[C@H](Cc1ccccc1)NC(=O)[C@@H](NC(=O)CNC(=O)[C@H](CCC(=O)O)NC(=O)C(C)(C)NC(=O)[C@@H](N)Cc1ccc(O)cc1)[C@@H](C)O)[C@@H](C)O)[C@@H](C)CC)[C@@H](C)CC)[C@@H](C)CC)C(=O)N[C@@H](CCC(=O)O)C(=O)NCC(=O)NCC(=O)N1CCC[C@H]1C(=O)N[C@@H](CO)C(=O)N[C@@H](CO)C(=O)NCC(=O)N[C@@H](C)C(=O)N1CCC[C@H]1C(=O)N1CCC[C@H]1C(=O)N1CCC[C@H]1C(=O)N[C@@H](CO)C(N)=O

What follows are binders tested against human GLP-1 receptor (human, UniProt P43220 24-463) (assay: cell-based or functional assay).

Row | Binder | hGLP1R cAMP EC50 ratio | hGLP1R cAMP Rel EC50 [nM]
1 | B1 | 0.0671 | 0.999
2 | B2 | 0.136 | 0.498
3 | B3 | 0.0708 | 0.891
4 | Y[Aib]EGTFTSDYSILLDKIAQ[Aib]AFIKYLIEGGPSSGAPPPS-NH2 (not fully specified (residue 24)) [Example 34] | 0.0392 | 1.56
5 | Y[Aib]EGTFTSDYSILLDKIAQ[Aib]AFK([AEEA-AEEA-γGlu-C20 diacid])EYLIEGGPSSGAPPPS-NH2 [Example 33] | 0.000256 | 251
6 | B4 | 0.0331 | 1.84

What follows are binders tested against T1, human GIP receptor (human, UniProt P48546 22-466) (assay: cell-based or functional assay).
T1 sequence (looked up): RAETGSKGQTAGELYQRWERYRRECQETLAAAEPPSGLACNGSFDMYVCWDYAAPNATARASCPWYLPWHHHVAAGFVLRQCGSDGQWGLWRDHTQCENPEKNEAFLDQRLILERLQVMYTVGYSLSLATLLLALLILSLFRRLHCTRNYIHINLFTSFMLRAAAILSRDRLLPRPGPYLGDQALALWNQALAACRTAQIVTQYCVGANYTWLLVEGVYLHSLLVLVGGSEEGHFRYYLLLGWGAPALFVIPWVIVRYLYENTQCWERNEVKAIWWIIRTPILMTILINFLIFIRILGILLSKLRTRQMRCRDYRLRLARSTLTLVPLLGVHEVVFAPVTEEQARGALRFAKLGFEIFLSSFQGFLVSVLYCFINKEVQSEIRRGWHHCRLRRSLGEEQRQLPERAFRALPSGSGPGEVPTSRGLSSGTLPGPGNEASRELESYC

Row | Binder | hGIPR cAMP EC50 ratio | hGIPR cAMP Rel EC50 [nM]
7 | B1 | 0.536 | 0.32
8 | B2 | 0.84 | 0.179
9 | B3 | 0.456 | 0.388
10 | Y[Aib]EGTFTSDYSILLDKIAQ[Aib]AFIKYLIEGGPSSGAPPPS-NH2 (not fully specified (residue 24)) [Example 34] | 0.393 | 0.36
11 | Y[Aib]EGTFTSDYSILLDKIAQ[Aib]AFK([AEEA-AEEA-γGlu-C20 diacid])EYLIEGGPSSGAPPPS-NH2 [Example 33] | 0.00222 | 63.3
12 | B4 | 1.5 | 0.114
